Test [1] addresses 'hybrid' Vγ9+Vδ1+ γδTCR (TCR #6 γ-chain paired with an irrelevant Vδ1+ chain), soluble ectodomain (human). The test can be described thus: surface plasmon resonance, binding at equilibrium (saturation plot with Scatchard inset, Expt. 1 and Expt. 2), soluble BTN2A1 200-3.1 µM over immobilized hybrid TCR.
The target is the same in test [2]. Put plainly: SPR, γδTCR ectodomain immobilized on streptavidin chip, soluble BTN2A1 200-3.1 µM, KD derived at equilibrium.
Test [3] has as its target G115 Vγ9Vδ2+ γδTCR, wild type, on cells. Put plainly: flow cytometry, tetramer-PE versus anti-CD3ε-APC on Jurkat G115 Vγ9Vδ2+ γδTCR cells.
A further test addresses T1, human BTN2A2, isoform 1 (human, UniProt Q8WVV5 33-523).
T1 construct: whole, on cells
T1 sequence (looked up): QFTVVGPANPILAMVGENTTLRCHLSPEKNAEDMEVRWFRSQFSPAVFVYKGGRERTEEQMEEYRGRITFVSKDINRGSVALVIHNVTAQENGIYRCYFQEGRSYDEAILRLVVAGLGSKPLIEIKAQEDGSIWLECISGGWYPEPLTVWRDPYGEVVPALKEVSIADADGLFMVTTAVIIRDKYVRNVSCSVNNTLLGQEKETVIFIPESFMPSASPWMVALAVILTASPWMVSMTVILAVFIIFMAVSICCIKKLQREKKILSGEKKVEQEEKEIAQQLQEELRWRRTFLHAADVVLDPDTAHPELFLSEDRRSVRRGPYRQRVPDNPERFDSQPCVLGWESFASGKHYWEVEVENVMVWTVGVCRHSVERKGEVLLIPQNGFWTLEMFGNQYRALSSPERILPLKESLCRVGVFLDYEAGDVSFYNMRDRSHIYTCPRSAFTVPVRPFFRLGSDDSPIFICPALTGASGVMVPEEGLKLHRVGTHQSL
The test can be described thus: told in the legend of FIG. 24; data in FIG. 11 (ELISA, transfected cells).

The test system of test [4] is in vitro pre-expanded CD3+Vδ2+ γδ T cells. Put plainly: HMBPP or anti-CD3/anti-CD28 activation of purified in vitro-expanded Vδ2+ T cells ± neutralizing anti-BTN2A1 mAb. As to conditions: HMBPP 0.5 ng/ml, 10 μg/ml neutralizing anti-BTN2A1 mAb, no APCs. Type of test: cell-based, human. The procedure:
CD25 expression was determined by flow cytometry, and IFN-γ concentration was determined by cytometric bead array (BD Bioscience) as per manufacturer instructions.

The test system of test [5] is LM-MEL-62 and LM-MEL-75 melanoma cells. The test can be described thus: Tumor killing/inhibition assay: γδ T cells with melanoma cells 2:1, MTS and CD25. Type of test: cell-based, human. As to conditions: γδ T cells : melanoma cells 2:1, three days, antibody 10 ug/ml. The procedure: In the following experiments, γδ T cells were enriched by MACS using PE-Cy7-conjugated anti-γδTCR followed by anti-phycoerythrin-mediated magnetic bead purification (Miltenyi Biotec). After enrichment CD3^+ Vδ2^+γδ T cells were further purified by sorting using an Aria III (BD). […] LM-MEL-62 and LM-MEL-75 melanoma cells were plated out 1×10^4 per well in a 96 well flat-bottom plate In RPMI1640 media supplemented with 10% FBS and left to adhere overnight. […] All conditions were repeated in triplicate. Cells were incubated at 37 degrees and on day 3 Vd2+ cells were acquired by flow cytometry. Live cells were gated and activation determined by analysis of CD25 expression. Melanoma cell viability was determined by MTS assay. MTS reagent was added to RPMI media at a 1:5 ratio and 100 ul added per well. Cells were incubated at 37 degrees for 30 minutes and the plate was read on a Spectrostar nano plate reader at 490 nm. […] Cultures were performed with γδ T cells and melanoma cells (LM-MEL-75 or LM-MEL-62) in a 2:1 ratio.

Test [6] has as its system Vγ9Vδ2 cells. Put plainly: Flow cytometry: CD25 on Vγ9Vδ2 cells without phosphoantigen or APCs. It counts as cell-based, human. As to conditions: no addition of APCs or phosphoantigen; listed as 253. The source says: Vγ9Vδ2 cells were stained for CD3, Vδ2, CD25 and live dead viability dye as previously described and analysed on a Canto flow cytometer (BD). Cells were gated on lymphocytes, single cells, live cells, CD3+ Vδ2+, and activation determined based on CD25 expression.

Test [7] deals with Vγ9Vδ2 cells. The test can be described thus: Luminex (Vγ9Vδ2): cytokine/chemokine secretion by pre-expanded Vγ9Vδ2 cells.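 Also: Vγ9Vδ2 cells purified from PBMC, activated 48 h with CD3 and CD28 plus IL-2, expanded 14 days in IL-2, then thawed and rested overnight in IL-2.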 Type of test: cell-based, human.
Method: Briefly, Vγ9Vδ2 cells were isolated from 1 healthy donor (Red Cross Australia) and 1 cancer patient derived PBMC using TCRγ/δ+ T Cell Isolation Kit (Miltenyi). Cells were stimulated for 48 hours in TCRPMI supplemented with 100u/ml IL-2, CD3 (10 μg/ml) and CD28 (1 μg/ml). Cells were washed and grown for 14 days in TCRPMI supplemented with 100u/ml IL-2 at 37 degrees C. and 5% CO2, and then frozen down. […] Vγ9Vδ2 were defrosted and rested overnight in TCRPMI supplemented with 50u/ml IL-2 at 37 degrees C. and 5% CO2. […] All samples were run with appropriate controls and standards.
A further test relates to γδ T cells. The test can be described thus: Identification of BTN2A1 agonistic antibodies: CD25 and interferon γ of expanded γδ T cells. It counts as cell-based, human. As to conditions: 10 μg/ml antibody overnight, vs isotype control BM4. The protocol:
In some experiments γδ T cells were enriched by MACS using PE-Cy7-conjugated anti-γδTCR followed by anti-phycoerythrin-mediated magnetic bead purification (Miltenyi Biotec). After enrichment CD3+Vδ2+ γδ T cells were further purified by sorting using an Aria III (BD). Enriched γδ T cells were stimulated in vitro for 48 h with plate-bound anti-CD3ε (OKT3, 10 ug/ml, Bio-X-Cell), soluble anti-CD28 (CD28.2, 1 ug/ml, BD Pharmingen), phytohemagglutinin (0.5 μg/ml, Sigma), IL-15 (50 ng/ml), and recombinant human IL-2 (100 U/ml, PeproTech), followed by maintenance with IL-2 and IL-15 for 14-21 d. Cells were cultured in complete medium consisting of a 50:50 (v/v) mixture of RPMI-1640 and AIM-V (Invitrogen) supplemented with 10% (v/v) FCS (JRH Biosciences), penicillin (100 U/ml), streptomycin (100 μg/ml), Glutamax (2 mM), sodium pyruvate (1 mM), nonessential amino acids (0.1 mM), and HEPES buffer (15 mM), pH 7.2-7.5 (all from Invitrogen Life Technologies), plus 50 μM 2-mercaptoethanol (Sigma-Aldrich).
The inventors screened the panel of antibodies specific for BTN2A1, as described above, to identify those able to agonise BTN2A1. The inventors assessed the ability of anti-BTN2A1 antibodies to activate γδ T cells. The inventors assessed upregulation of CD25 on the surface of previously expanded γδ T cells following culturing the cells with 10 μg/ml anti-BTN2A1 antibodies or isotype control antibody (BM4) overnight.
The inventors additionally measured levels of interferon γ secreted by γδ T cells following culture in the presence of 10 μg/ml anti-BTN2A1 antibodies or isotype control antibody (BM4) overnight. Interferon γ secretion is another indicator of TCR-dependent activation.

Test [8] concerns the target T2, human BTN3A1, isoform 1, on cells (human, UniProt O00481 30-513).
T2 construct: whole, on cells
The test can be described thus: FRET between C-terminal CFP/YFP tags on co-transfected NIH-3T3 cells, flow cytometry (FIG. 5D, FIG. 20A).
From the text: FRET was detected in a compensated yellow 670/30 channel. […] The frequency of cells identified as FRET⁺ was examined on gated CFP⁺YFP⁺NIH-3T3 cells for dual tranfectants, and either CFP⁺ or YFP⁺ for single transfectants.

Setting [9] is: γδT cells from a healthy donor, 16 hrs, antibodies 10 μg/ml, Zoledronic acid 4 μM, HMBPP 0.5 ng/ml, duplicates, 0 set to 0.1.
Where [10] appears, read: γδT cells from a healthy donor, 16 hrs, antibodies 10 μg/ml, Zoledronic acid 4 μM, HMBPP 0.5 ng/ml, duplicates, 0 set to 0.1, listed as 253.
[11] abbreviates: γδT cells from patient 1 (melanoma patient), 16 hrs, antibodies 10 μg/ml, Zoledronic acid 4 μM, HMBPP 0.5 ng/ml, duplicates, 0 set to 0.1.
Setting [12] is: γδT cells from patient 1 (melanoma patient), 16 hrs, antibodies 10 μg/ml, Zoledronic acid 4 μM, HMBPP 0.5 ng/ml, duplicates, 0 set to 0.1, listed as 253.

“And” between values parts separate entries of the source, which are not always exact repeats. Identical values can stand only once. “Also recorded” adds a separate entry of the source.

Sequence of 'hybrid' Vγ9+Vδ1+ γδTCR (TCR #6 γ-chain paired with an irrelevant Vδ1+ chain), soluble ectodomain (human) (TCR gamma, as listed by the source): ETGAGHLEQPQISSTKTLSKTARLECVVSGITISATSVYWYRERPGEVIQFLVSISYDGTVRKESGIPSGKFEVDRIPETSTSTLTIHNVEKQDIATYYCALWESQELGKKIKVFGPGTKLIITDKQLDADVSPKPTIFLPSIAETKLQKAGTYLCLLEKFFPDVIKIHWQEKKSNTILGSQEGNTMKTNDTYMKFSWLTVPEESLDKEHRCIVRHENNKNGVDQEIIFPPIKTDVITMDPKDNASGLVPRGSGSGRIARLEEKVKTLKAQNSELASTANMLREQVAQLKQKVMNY
T2 sequence (O00481 30-513 limits assumed): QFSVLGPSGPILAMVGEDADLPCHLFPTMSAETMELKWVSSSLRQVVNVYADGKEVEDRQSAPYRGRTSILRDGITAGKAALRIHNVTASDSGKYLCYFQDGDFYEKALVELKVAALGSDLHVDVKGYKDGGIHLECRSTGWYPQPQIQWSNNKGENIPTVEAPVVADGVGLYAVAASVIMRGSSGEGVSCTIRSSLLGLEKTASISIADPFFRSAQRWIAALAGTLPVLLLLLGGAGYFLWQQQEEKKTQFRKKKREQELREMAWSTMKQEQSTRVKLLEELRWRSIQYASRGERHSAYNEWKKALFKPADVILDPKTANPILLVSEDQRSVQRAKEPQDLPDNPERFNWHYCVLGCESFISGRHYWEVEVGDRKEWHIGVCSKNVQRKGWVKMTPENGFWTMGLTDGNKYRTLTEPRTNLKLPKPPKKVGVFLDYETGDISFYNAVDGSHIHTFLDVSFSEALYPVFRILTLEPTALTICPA
Method for human BTN2A2, isoform 1: Purified recombinant proteins (0.2-20 μg/ml) were immobilized in microplate wells in PBS buffer overnight at 4° C. Non-specific binding was then blocked by incubation in PBS containing 0.05% tween 20 plus 5% skim milk powder or 0.5% (w/v) bovine serum albumin (BSA). The wells were then incubated for 60 minutes at room temperature in the presence of antibodies at 2-5 μg/mL in PBS/0.05% tween-20/2% skim milk powder or 0.5% BSA, followed by washing in PBS/0.05% tween-20. Plates were then incubated with HRP-labelled sheep anti-mouse IgG secondary antibody (Chemicon), or goat anti-mouse IgG secondary antibody (Millipore) followed by detection using 3,3′,5,5′-tetramethylbenzidine substrate (Sigma) and absorbance was measured at 450 nm using a plate reader.

As to “soluble BTN2A1 ectodomain (IgV and IgC domains; Gln29 to Ser245) with C-terminal linker, Avi-tag and His6-tag (ligand)”, the values for the Kd in test [1] and in test [2] were 50.4 µM and 50 µM, respectively.
Molecule “BTN2A1 tetramer-PE (biotinylated BTN2A1 ectodomain tetramerized with streptavidin-PE) (ligand)” showed a cells in the BTN2A1 tetramer+ gate (%) in [3] of 100%.
Still for that read-out and setting: the result for “Glycosylated BTN2A1 tet. (simple glycans) (from UniProt Q7KYR7) (ligand)” reads 100%.

B1: anti-BTN2A1 antibody 259 (antibody, V domains shown)
VH: EVQLLESGGGLVQPGGSLRLSCAASGFTFSSYAMQWVRQAPGKGLEWVSRIGPSGGGTMYADSVKGRFTISRDNSKNTLYLQMNSLRAEDMAVYYCARDLGGLSVLFDYWGQGTLVTVSS
VL: QSELTQPPSASETPGQRVTISCSGSSSNIGSNTVSWFQQLPGSAPRLLIYNDHRRPSGVPDRFSGSKSGTSASLVISGLQSQDEADYYCSAWDDSLNGVVFGGGTKLTVL
As for B1, the binding result with human BTN2A2, isoform 1 is given as “no binding”.

B2: clone 267: anti-BTN2A1 mAb, partial inhibitor; VH SEQ ID NO: 132, VL SEQ ID NO: 133 (antibody, V domains shown)
VH: EVQLLESGGGLVQPGGSLRLSCAASGFTFSTYVMYWVRQAPGKGLEWVSSISPSGGLTVYVDSVKGRFTISRDNSKNTLYLQMNSLRAEDTAVYYCARVGYSSSDIWGQGTMVTVSS
VL: QYELTQPHSVSESPGKTVTISCTRNGGSIASNAVQWYQQRPGSAPITVIYDDSQRPSGVPDRFSGSIDSSSNTASLTISGLTTEDEADYYCLSFDTTSQIFGGGTKLTVL
modifications: amino acid sequence of clone 267 VH; amino acid sequence of clone 267 VL
Take B2: in [4], the “HMBPP-induced activation (CD25 upregulation, IFN-γ production)” value was “only a partial inhibitor”.

B3: antibody 253: agonistic anti-BTN2A1 antibody; VL SEQ ID NO: 148, VH SEQ ID NO: 152 (antibody, V domains shown)
VH: EVQLLESGGGLVQPGGSLRLSCAASGFTFSTYDMYWVRQAPGKGLEWVSYISPSGGLTTYADSVKGRFTISRDNSKNTLYLQMNSLRAEDTAVYYCARDHYDSSGRATNYYYYMDVWGKGTTVTVSS
VL: QSALTQPPSASGTPGQRVTLSCSGSSSNIGSNRVNWYQQLPGTAPKLLIDSNNQRPSGVPDRFSGSKSGTSASLAISGLRSEDEVFYYCAAWDDSVHGPVFGGGTMVTVL
modifications: amino acid sequence of the VH of antibody 253; amino acid sequence of the VL of antibody 253
Take B3: the “CD25 level of expression on γδ T cells in co-culture” value in test [5] is reported as “upregulated”. The “activation of Vγ9Vδ2 cells by CD25 upregulation” value in the test on Vγ9Vδ2 cells [6] is given as “activation of Vγ9Vδ2 independent of phosphoantigen; also recorded: can mimic phosphoantigen mediated activation to various degrees”. In addition, in the test on Vγ9Vδ2 cells [7] (across both donors), the “cytokine/chemokine secretion, in words” value is listed as “weaker stimulus”. The “cytokine/chemokine secretion, in words” value with Vγ9Vδ2 cells [7] (cancer patient derived Vγ9Vδ2 cells, vs isotype (BM4)) is “No increase in any analyte”. In addition, in the test on Vγ9Vδ2 cells [7] (healthy donor derived Vγ9Vδ2 cells, vs isotype (BM4)), the “cytokine/chemokine secretion, in words” value was “only small increases in the amounts of secreted GMCSF”. In the test with Vγ9Vδ2 cells [7] (setting [9]), this molecule displayed an ICAM-1 of 0.1 pg/mL, an IFNγ of 0.1 pg/mL, an IL-4 of 0.1 pg/mL and an IL-8 of 0.1 pg/mL. Also, in the test on Vγ9Vδ2 cells [7] (setting [9]), the IL-13 is 0.1 pg/mL, the IL-17A turned out to be 0.1 pg/mL, the TNFα was found to be 0.1 pg/mL and the sE-selectin stood at 0.1 pg/mL. In the test on Vγ9Vδ2 cells [7] (setting [9]), this molecule displayed a sP-Selectin of 0.1 pg/mL. Further, in the test with Vγ9Vδ2 cells [7] (setting [10]), the MIP-1a was 16.32 pg/mL and 19.57 pg/mL; the MIP-1b is 117.31 pg/mL and 143.67 pg/mL. In the test with Vγ9Vδ2 cells [7] (setting [11]), this molecule yielded an IL-4 of 0.1 pg/mL, an IL-8 of 0.1 pg/mL, an IL-17A of 0.1 pg/mL and a TNFα of 0.1 pg/mL. The molecule also showed a sP-Selectin in the test on Vγ9Vδ2 cells [7] (setting [11]) of 0.1 pg/mL. For the same molecule, in the test with Vγ9Vδ2 cells [7] (setting [12]), the GMCSF was 32.02 pg/mL and 33.23 pg/mL; the ICAM-1 is 480.81 pg/mL and 405.75 pg/mL; the IFNγ is 6.87 pg/mL and 3.45 pg/mL; the IL-13 was 45.16 pg/mL and 36.92 pg/mL. In the test on Vγ9Vδ2 cells [7] (setting [12]), the MIP-1a is 133.36 pg/mL and 137.25 pg/mL; the MIP-1b is 901.33 pg/mL and 941.65 pg/mL; the sE-selectin was 142.97 pg/mL and 101.78 pg/mL. Besides, in the test with γδ T cells, the “level of secreted interferon γ” value is on record as “increase the level of secreted interferon γ” and the “percentage of γδ T cells expressing CD25” value is listed as “increase the percentage of γδ T cells expressing CD25”.

B4: human BTNL8, isoform 1, on cells (ligand, UniProt Q6UX41 18-500, looked up)
chain: QWQVFGPDKPVQALVGEDAAFSCFLSPKTNAEAMEVRFFRGQFSSVVHLYRDGKDQPFMQMPQYQGRTKLVKDSIAEGRISLRLENITVLDAGLYGCRISSQSYYQKAIWELQVSALGSVPLISITGYVDRDIQLLCQSSGWFPRPTAKWKGPQGQDLSTDSRTNRDMHGLFDVEISLTVQENAGSISCSMRHAHLSREVESRVQIGDTFFEPISWHLATKVLGILCCGLFFGIVGLKIFFSKFQWKIQAELDWRRKHGQAELRDARKHAVEVTLDPETAHPKLCVSDLKTVTHRKAPQEVPHSEKRFTRKSVVASQSFQAGKHYWEVDGGHNKRWRVGVCRDDVDRRKEYVTLSPDHGYWVLRLNGEHLYFTLNPRFISVFPRTPPTKIGVFLDYECGTISFFNINDQSLIYTLTCRFEGLLRPYIEYPSYNEQNGTPIVICPVTQESEKEASWQRASAIPETSNSESSSQATTPFLPRGEM
notes: whole, on cells; also called B7NL8
On to B4, for which the binding result in [8] is given as “no binding”.

(Values after patent US20220273713A1, “METHOD OF INHIBITING OR ACTIVATING GAMMA DELTA T CELLS” (The University of Melbourne, priority 2019, published 2022).)
